The text below walks through data of paper PMC4987395.

The target in this experiment is Arabidopsis thaliana plasmodesmata-located protein 1 (PDLP1) fused to RFP (Arabidopsis thaliana) (UniProt Q8GXV7). Put plainly: FRET or BRET; FRET-FLIM: GFP on the MP as donor, RFP on PDLP1 as acceptor; co-expressed by agroinfiltration in N. benthamiana leaves, measured at spots in plasmodesmata; donor fluorescence lifetime by time-correlated single-photon counting. For orientation: Bioluminescence resonance energy transfer reports proximity on the nanometre scale.
Chain of UniProt Q8GXV7 (Q8GXV7 22-303): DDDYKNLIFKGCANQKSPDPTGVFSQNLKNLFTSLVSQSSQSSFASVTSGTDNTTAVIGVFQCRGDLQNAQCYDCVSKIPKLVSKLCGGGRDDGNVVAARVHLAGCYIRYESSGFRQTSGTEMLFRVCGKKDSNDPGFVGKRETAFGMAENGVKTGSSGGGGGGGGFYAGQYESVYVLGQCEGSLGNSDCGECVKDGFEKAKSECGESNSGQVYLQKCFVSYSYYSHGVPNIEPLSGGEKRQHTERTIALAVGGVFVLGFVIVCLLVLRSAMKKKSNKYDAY

As for “cowpea mosaic virus (CPMV) movement protein (48K) fused at its C-terminus to GFP (natural protein)”, the FRET efficiency is 7.5%.
With “grapevine fanleaf virus (GFLV) 2B movement protein with GFP fused at its N-terminus (natural protein)” the figure was 6.7%.
